Results as given in patent US10980859B2, “In vivo individualized systemic immunotherapeutic method and device” (Hangzhou Converd Co., Ltd., priority 2013, dated 2021).

Key:
CD11b+ DC in spleen = experiment: Flow cytometric analysis of GM-CSF induced expansion of DC in B16 melanoma cell murine model; assay type: in vivo, C57BL/6 mice; details: s.c.
From the text: Animal Model (for FIGS. 5-11)
The male immunocompetent C57BL/6 mice were purchased from Shanghai Experimental Animal Center (Shanghhai, China) and maintained in the animal facility at Tongji University (Shanghai, China) according to the animal research committee's guidelines of Tongji University. To establish the tumor-bearing animal model, the male immunocompetent C57BL/6 mice 6-8 weeks old, were subcutaneously (s.c.) inoculated on their back of the ribs with 2×10^6 B16 cells, and then monitored daily for tumor growth. After 6 days (when the tumors grew up to a mean tumor volume of around 70-100 mm^3), these tumor-bearing animals were randomly numbered and then divided into groups depended on the random number. Tumor volume was measured with a caliper each three days and calculated using the following formula: [L×W^2]/2 (L=length of tumor; W=width of tumor). […]
Briefly, mice were killed, and spleens were removed into cold culture medium and processed immediately. […] All cells from all incubation periods were pooled and counted. […]
63 male 6-8 weeks old C57BL/6 mice were subcutaneously (s.c.) inoculated on their back of the ribs with 2×10^6 B16 cells, and then monitored daily for tumor growth. […] After another 1.5, 2.5, 3.5 and 4.5 days, indicated groups were sacrificed and analyzed, respectively. […]

[1] = test system: Ly-6G+ DC precursors and CD11b+ DC in spleen; experiment: Flow cytometric analysis of GM-CSF induced expansion of DC and DC precursor in normal animals; assay type: in vivo; details: s.c., healthy C57BL/6 mice
Experimental: Spleen Tissue Dissociation (for FIG. 6-8)
Briefly, mice were killed, and spleens were removed into cold culture medium and processed immediately. Surrounding mouse tissue and fat were removed. The spleens were minced into 2-3 mm fragments, and then crushed in cold culture medium using a flat tail of syringe piston. The spleen fragments were mixed up and down several times using a 1.5 mL micropipette with a tip cut to a diameter adapted to tissue fragment size. After that, the fragments were filtered through a […] nylon mesh cell strainer (BD Biosciences, San Diego, Calif., USA). The released cells were centrifuged at 1200 RPM for 2 min and stored in cold culture medium with 30% (v/v) FCS at 4° C. All cells from all incubation periods were pooled and counted.
Flow Cytometric Analysis of GM-CSF Induced Expansion of DC and DC Precursorin Normal Animals (for FIG. 6, 7)
52 male 6-8 weeks old C57BL/6 mice were randomly numbered and then divided into 13 groups depended on the random number. 12 groups were subcutaneously (s.c.) administered murine GM-CSF (PeproTech, Cat#96-315-03-1000) 2 μg on their back of the ribs, single injection from day 1 to 12 respectively. The last group was control. After 13 days, all animals were sacrificed. […]

[2] = test system: CD8+ TIL infiltration in B16 tumor; experiment: Immunofluorescence analysis of CD8+ TIL infiltration in tumor; assay type: in vivo, C57BL/6 mice; details: B16 tumor-bearing mice
From the text: Systemic Immunotherapeutic Combination Therapy (for FIG. 10, 11, 12)
72 male 6-8 weeks old C57BL/6 mice were subcutaneously (s.c.) inoculated on their back of the ribs with 2×10^6 B16 cells, and then monitored daily for tumor growth. These tumor-bearing animals were randomly numbered and then divided into 9 groups depended on the random number. Indicated groups were subjected to OVs (H101, 4×10^9 VPs) therapy i.t. and/or GM-CSF s.c. and/or PD-L1 mab (eBioscience, Cat#16-5982-85) i.p. or PBS (pH 7.4) only s.c. at indicated time points. After day 13, all animals were sacrificed and analyzed. Grouping and experiment design are illustrated in FIG. 17.
Immunofluorescence Analysis of CD8^+ TIL Infiltration in Tumor Using Systemic Immunotherapeutic Combination Therapy (for FIG. 12)
The level of CD8^+ TIL infiltration in tumor was determined by immunofluorescence staining. […] After the treatment with antifade mounting medium, fluorescence signals were detected under fluorescence microscope (BX43, OLYMPUS). Fluorescence images were analyzed using Image-Pro Plus 6.0 software and the histogram was made by GraphPad Prism 5 software and p<0.05 was considered statistically significant.

B1: murine GM-CSF: murine granulocyte-macrophage colony-stimulating factor (PeproTech, Cat#96-315-03-1000) (protein, UniProt P01587 18-141, looked up)
Granulocyte-macrophage …: APTRSPITVTRPWKHVEAIKEALNLLDDMPVTLNEEVEVVSNEFSFKKLTCVQTRLKIFEQGLRGNFTKLKGALNMTASYYQTYCPPTPETDCETQVTTYADFIDSLKTFLTDIPFECKKPGQK
CD11b+ DC in spleen
  CD11b+ DC in spleen: induces up-regulation of CD11b^+ DC in spleen at Day 3.5
[1]
  CD11b+ DC in spleen: induces expansion of CD11b^+ DC at day 2-4
  Ly-6G+ DC precursors in spleen: induces expansion of Ly-6G^+ DC precursors at day 1
[2]
  CD8+ TIL infiltration in tumor: induces medium CD8^+ TIL infiltration
